Assay results: patent publication US12391762B2, “Methods and compositions relating to GLP1R variants” (Twist Bioscience Corporation, priority 2020, dated 2025)
Where a chain is given by its changes, count along the chain named.

B1: GLP1R-3: antagonist GLP-1R IgG with GLP-1 motif in CDRH3 (SEQ ID NO 20) (antibody)
heavy: QVQLVESGGGVVQPGRSLRLSCAASGFTFSSYGMHWVRQAPGKGLEWVSFISYDESNKYYADSVKGRFTISRDNSKNTLYLQMNSLRAEDTAVYYCAKHMSMQEGAVTGEGQAAKEFIAWLVKGRVRADLVGDAFDVWGQGTLVTVSSASTKGPSVFPLAPCSRSTSESTAALGCLVKDYFPEPVTVSWNSGALTSGVHTFPAVLQSSGLYSLSSVVTVPSSNFGTQTYTCNVDHKPSNTKVDKTVERKCCVECPPCPAPPVAGPSVFLFPPKPKDTLMISRTPEVTCVVVDVSHEDPEVQFNWYVDGVEVHNAKTKPREEQFNSTFRVVSVLTVVHQDWLNGKEYKCKVSNKGLPAPIEKTISKTKGQPREPQVYTLPPSREEMTKNQVSLTCLVKGFYPSDIAVEWESNGQPENNYKTTPPMLDSDGSFFLYSKLTVDKSRWQQGNVFSCSVMHEALHNHYTQKSLSLSPGK
light: QSVLTQPPSVSAAPGQKVTISCSGSSSNIADNYVSWYQQLPGTAPKLLIYDNNKRPSGIPDRFSGSKSGTSATLGITGLQTGDEADYYCGTWDNYLGAGVFGGGTKLTVLGQPKAAPSVTLFPPSSEELQANKATLVCLISDFYPGAVTVAWKADSSPVKAGVETTTPSKQSNNKYAASSYLSLTPEQWKSHRSYSCQVTHEGSTVEKTVAPTECS
B2: GLP1R222-012: GLP1R-222 variant, optimized from GLP1R-3 (antibody, V domains shown)
VH: QVQLVESGGGVVQPGRSLRLSCAASGFTFNNYGMHWVRQAPGKGLEWVAVISDEGSNKYYADSVKGRFTISRDNSKNTLYLQMNSLRAEDTAVYYCAKHMSMQEGAVTGVGQAAKEFIAWLVKGRVRADLVGDAFDVWGQGTLVTVSS
VL: QSVLTQPPSVSAAPGQKVTISCSGSSSNIGNNDVSWYQQLPGTAPKLLIYDDDKRPSGIPDRFSGSKSGTSATLGITGLQTGDEADYYCGTWDTSLSVGEFGGGTKLTVL
B3: GLP1R222-052: GLP1R-222 variant, optimized from GLP1R-3 (antibody, V domains shown)
VH: B2 VH with G33P, D53Y, E54D, G55E, V110G
VL: B2 VL with N31K, N32R, D33S, D52N, D53N, P56A, G90V, T94R, V98A, E100V
B4: GLP1R222-090: GLP1R-222 variant, optimized from GLP1R-3 (antibody, V domains shown)
VH: B2 VH with T28S, N30S, N31D, M34I, V50L, D53Y, V110E, G111K
VL: QSVLTQPPSVSAAPGQKVTISCSGSSSNIADNYVSWYQQLPGTAPKLLIYDNNKRASGIPDRFSGSKSGTSATLGITGLQTGDEADYYCATWDNRLSAGVFGGGTKLTVL
B5: GLP1R222-082: GLP1R-222 variant, optimized from GLP1R-3 (antibody, V domains shown)
VH: B2 VH with N30S, N31A, G33S, V50L, D53Y, E54D, G55A, S56T, V110E, G111F
VL: B4 VL with A30G, D31S, N32K, A56P, A90G, N94I, R95S, L96P, G99W

Assays:
[1] = Insulin Tolerance Test (ITT); type: in vivo, mouse; conditions: for Area Under the Curve (AUC) in ITT: vs control
Protocol: Animals. All animal procedures were approved by Institutional Animal Care and Use Committee (IACUC) at the University of California San Francisco and were conducted in accordance with the National Institutes of Health Guide for the Care and Use of laboratory Animals. C57BL/6NHsd (Envigo RMS, LLC) male littermates at 8-10 weeks of age, weighing ˜20-28 grams, were used in all the studies described. The mice were housed in a room that was temperature (22-25 C) and light controlled (12-h: 12-h light/dark cycle starting at 7 AM. The mice were fed with chow diet with 9% fat (PicoLab mouse Diet 20 (#5058), Lab Supply, Fortworth Texas, USA) for the duration of housing at the UCSF animal care facility.
1. mAb administered as a single dose, 15 hours prior to GTT and 21 hours prior to ITT. 2. mAb administered as a double dose, 15 hours prior to GTT and 21 hours prior to ITT plus a second mAb dose 2 hours prior to GTT and ITT. 3. mAb as a single dose 6 hours prior to GTT and ITT. 4. mAb single dose 2 hours prior to GTT and ITT.
Extendin 9-39 Peptide (MedChemExpress, Cat. No.: HY-P0264) were dosed at 1.0 or 0.23 mg/kg at three different administration regimen groups. 1. Extendin administered as a single dose, 21 hours prior to ITT. 2. Extendin administered as a double dose, 21 hours prior to ITT plus a second Extendin dose 2 hours prior to ITT. 3. mAb as a single dose 6 hours prior to ITT.
An Insulin Tolerance Test (ITT) was conducted to assess two different anti-GLP1 mAbs (agonist and antagonist) effect on insulin sensitivity following acute insulin administration. 8 or 10-week old male mice were fasted for 6 hours and body weight was recorded before and after fasting. To avoid circadian variations in mouse blood glucose levels this testing was performed at fixed times. Blood samples were collected by tail nick and baseline glucose was measured prior to insulin injection. Mice were injected, i.p., with a single bolus (0.75 U/Kg body weight) of human insulin (Novolin, Novo Nordisk) and blood glucose levels were measured at 15, 30, 45, 60 and 120 minutes after insulin injection. Blood glucose levels were monitored using a OneTouch Ultra 2 glucose monitor (LifeScan, Inc.).

[2] = test system: CHO-parent cells; assay: Flow cytometry binding assay on CHO-parent cells (background binding); design: species or system Chinese Hamster; conditions: for Bmax CHO Parent: IgG titration
Protocol: GLP-1R IgG clones were tested in a binding assay coupled to flow cytometry analysis as follows: FLAG-GLP-1R-GFP expressing CHO cells (CHO-GLP-1R) and CHO-parent cells were incubated with 100 nM IgG for 1 h on ice, washed three times and incubated with Alexa 647 conjugated goat-anti-human antibody (1:200) (Jackson ImmunoResearch Laboratories, 109-605-044) for 30 min on ice, followed by three washes, centrifuging to pellet the cells between each washing step. All incubations and washes were in buffer containing PBS+1% BSA. For titrations, IgG was serially diluted 1:3 starting from 100 nM down to 0.046 nM. Cells were analyzed by flow cytometry and hits (a hit is an IgG that specifically binds to CHO-GLP-1R) were identified by measuring the GFP signal against the Alexa 647 signal. Flow cytometry data of binding assays with 100 nM IgG are presented as dot plots. Analyses of binding assays with IgG titrations are presented as binding curves plotting IgG concentrations against MFI (mean fluorescence intensity).

[3] = Rat PK study, ELISA for human IgG in plasma; type: in vivo; conditions: 10 mg/kg IV, 2-week PK study, beta phase
Protocol: The rat PK study was done at Charles River Laboratories, One Innovation Dr, 3 Biotech, Worcester, MA 01605. 5 Male Sprague-Dawley rats per group were allowed to acclimate after receiving at test facility for a minimum of 3 days before dosing. […] Serial blood samples were collected via jugular vein cannula with ˜250 ul volume at each time point: pre-dose, 0.0833, 0.25, 0.5, 1, 2, 4, 8, 24, 48, 72, 96, 168, 240 and 336 hours post dose. Blood samples were collected into K2EDTA tubes and stored on wet ice until processed to plasma by centrifugation (3500 rpm for 10 minutes at 5° C.) within 30 minutes of collection. Plasma samples were then transferred into an appropriate tube containing DPP-4 (3.3 μL for 100 μL of plasma) and frozen on dry ice. To measure the human IgG in rat plasma samples, sheep anti-Human IgG (1 mg/mL) was used as coating reagent) (The binding site, Lot No. AU003.M), and goat anti-Human IgG, HRP (H&L) (1 mg/mL) was used as detection reagent) (Bethyl, cat #A80-319P) in an ELISA assay. Stock solutions of human IgG standards and QCs were prepared by spiking human IgG into rat plasma. […] The semi-logarithmic sigmoid calibration curve was obtained by plotting the absorbance response against concentration. Concentrations of analyte in the test samples were determined by computer interpolation from the plot of the calibration curve.

[4] = molecular target: T1, GLP-1R (Homo sapiens, UniProt P43220); assay: cAMP assays (agonist and antagonist mode), GLP-1R over-expressing CHO-K1 cells; type: cell-based; design: host or cells: CHO-K1; conditions: pre-incubation with fixed concentration of IgG (100 nM), then GLP-1 7-36 titration
Protocol: CAMP assays. GLP-1R IgG clones were tested for their potential effects on GLP-1R signaling by performing cAMP assays obtained from Eurofins DiscoverXX. The technology involved in detecting cAMP levels is a no wash gain-of-signal competitive immunoassay based on Enzyme Fragment Complementation technology. Experiments were designed to test for either agonist or antagonist activity of the IgG clones. To test for agonist activity of the IgGs, cells were stimulated with IgG incubating for 30 min at 37° C. […] Intracellular CAMP levels were detected by following the assay kit instructions.
Target sequence in this assay (P43220 24-463): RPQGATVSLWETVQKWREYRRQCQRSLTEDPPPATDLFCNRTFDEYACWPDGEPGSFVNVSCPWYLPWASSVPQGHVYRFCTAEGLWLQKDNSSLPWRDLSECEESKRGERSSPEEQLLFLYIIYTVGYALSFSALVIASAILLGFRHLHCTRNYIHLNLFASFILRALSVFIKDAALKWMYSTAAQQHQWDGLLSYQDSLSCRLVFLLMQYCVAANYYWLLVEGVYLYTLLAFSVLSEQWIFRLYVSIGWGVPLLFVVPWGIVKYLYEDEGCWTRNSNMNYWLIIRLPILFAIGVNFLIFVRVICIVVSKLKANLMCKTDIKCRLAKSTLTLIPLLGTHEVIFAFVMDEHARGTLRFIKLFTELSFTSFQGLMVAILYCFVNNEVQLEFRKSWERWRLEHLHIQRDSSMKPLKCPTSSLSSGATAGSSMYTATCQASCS

[5] = molecular target: T1, GLP-1R; assay: Beta arrestin recruitment assay, GLP-1R overexpressing CHO-K1 cells; type: cell-based; design: host or cells: CHO-K1; conditions: 100 nM IgG pre-incubated 1 hr
Protocol: Beta arrestin recruitment assy. β-arrestin recruitment assay was obtained from Eurofins DiscoverXX (Cat #93-0300E2) that utilized untagged GLP-1R overexpressing CHO-K1 cells. […] Expanded cells were seeded into 96 well plates at 5,000 cells/well, and the experiment was performed 48 hours after plating cells. […] Add 22.5 uL of detection solution to each well, tap gently and briefly spin down. Then incubate plates at RT for 1 hour in the dark. The plates were then read by a Chemiluminescence plate reader, Molecular Devices SpectraMax® M5, and output relative light units (RLU) data were analyzed using GraphPad Prism™.
Target sequence in this assay (P43220 24-463): as above

[6] = molecular target: T1, GLP-1R; assay: Ec50; design: The full length human GLP-1R gene (UniProt-P43220) with an N-terminal FLAG tag and C-terminal GFP tag; expressed in transfected cells
From the text: Table printed on a drawing sheet, FIG. 16A

[7] = 19+2 hour, GLP1R-3 20 mg/kg, Exendin 1 mg/kg
[8] = 19+2 hours dosing regimen, C57BL/6NHsd mice
[9] = single 6 hour treatment, GLP1R-3 20 mg/kg, Exendin 1.0 and 0.23 mg/kg

Row | Molecule | Area Under the Curve (AUC) in ITT [1, 7] | blood glucose after insulin challenge [1, 8] | Area Under the Curve (AUC) in ITT [1, 9] | Median RL1-H of Parent Singlets ([2]; Table 6D, GLP1R-222 variants) | Bmax CHO Parent ([2]; Table 6F) | also measured
1 | Exendin 9-39 [reference compound] | significant (p<0.0001) | significantly stabilizes a higher blood glucose | no significant difference |  |  | Area Under the Curve (AUC) in ITT ([1]; 19+2 hour, Exendin 0.23 mg/kg): no significant difference
2 | B1 | significant (p<0.0001) | significantly stabilizes a higher blood glucose | significantly (p<0.05) stabilizes | 302.5 |  | Median RL1-H of Parent Singlets ([2]; Table 6C, GLP1R-221 variants): 234; Bmax CHO Parent ([2]; Table 6E): 268; in vivo half-life [3]: ~1 week; blood glucose after insulin challenge ([1]; single 6 hour dosing regimen, comparator antibody experiment, 20 mg/kg): significantly stabilized a higher blood glucose; blood glucose after insulin challenge ([1]; single 6 hour dosing regimen, compared to Exendin 9-39 or control): significantly stabilizes a higher blood glucose; Area Under the Curve (AUC) in ITT ([1]; single 6 hour treatment, comparator antibody experiment, 20 mg/kg): significantly (p<0.05) stabilized; antagonist activity: effect on GLP-1 7-36-induced GLP-1R cAMP signaling [4]: clear dose-dependent inhibition of the CAMP signal; effect on GLP-1 7-36 induced β-arrestin recruitment [5]: inhibition of GLP-1 7-36 peptide-induced beta arrestin recruitment; EC50 [6]: 3.94 nM
3 | B2 |  |  |  | 290.5 | 340.6 | 
4 | B3 |  |  |  | 27565.5 | 47529 | 
5 | B4 |  |  |  | 432 | 413.4 | 
6 | B5 |  |  |  | 315 | 305 | 
